This is an account of results in patent US20220010021A1 (Sanofi, published 2022).

For the assay, the target named is human FGFR1c + KLB receptor complex on HEK293 iLite FGF21 reporter cells (human, UniProt P11362 22-822; Q86Z14 1-1044). The assay can be described thus: cell-based or functional assay.
human FGFR1c + KLB receptor complex on HEK293 iLite FGF21 reporter cells, sequence (P11362 22-822, chain 1 of 2): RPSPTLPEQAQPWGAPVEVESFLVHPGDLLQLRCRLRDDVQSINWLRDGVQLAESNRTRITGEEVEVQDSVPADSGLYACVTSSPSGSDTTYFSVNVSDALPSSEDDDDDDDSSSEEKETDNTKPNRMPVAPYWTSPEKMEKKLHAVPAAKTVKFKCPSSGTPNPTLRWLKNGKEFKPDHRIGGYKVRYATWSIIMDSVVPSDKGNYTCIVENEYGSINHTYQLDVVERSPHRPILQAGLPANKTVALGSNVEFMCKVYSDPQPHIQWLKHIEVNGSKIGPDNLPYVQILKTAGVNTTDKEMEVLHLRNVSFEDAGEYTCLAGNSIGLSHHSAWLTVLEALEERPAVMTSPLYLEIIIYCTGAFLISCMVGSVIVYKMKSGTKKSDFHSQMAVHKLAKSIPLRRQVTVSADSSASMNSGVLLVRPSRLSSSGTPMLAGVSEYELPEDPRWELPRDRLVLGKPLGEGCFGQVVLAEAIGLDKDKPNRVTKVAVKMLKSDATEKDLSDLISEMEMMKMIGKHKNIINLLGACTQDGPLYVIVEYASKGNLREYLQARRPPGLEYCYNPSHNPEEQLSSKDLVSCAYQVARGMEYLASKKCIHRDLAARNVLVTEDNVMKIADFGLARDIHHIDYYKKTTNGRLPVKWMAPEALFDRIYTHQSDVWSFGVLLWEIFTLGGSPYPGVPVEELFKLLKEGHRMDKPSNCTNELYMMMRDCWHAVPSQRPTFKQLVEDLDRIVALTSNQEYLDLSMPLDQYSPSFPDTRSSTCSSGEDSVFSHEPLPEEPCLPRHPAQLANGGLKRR
human FGFR1c + KLB receptor complex on HEK293 iLite FGF21 reporter cells, sequence (Q86Z14 whole entry, chain 2 of 2): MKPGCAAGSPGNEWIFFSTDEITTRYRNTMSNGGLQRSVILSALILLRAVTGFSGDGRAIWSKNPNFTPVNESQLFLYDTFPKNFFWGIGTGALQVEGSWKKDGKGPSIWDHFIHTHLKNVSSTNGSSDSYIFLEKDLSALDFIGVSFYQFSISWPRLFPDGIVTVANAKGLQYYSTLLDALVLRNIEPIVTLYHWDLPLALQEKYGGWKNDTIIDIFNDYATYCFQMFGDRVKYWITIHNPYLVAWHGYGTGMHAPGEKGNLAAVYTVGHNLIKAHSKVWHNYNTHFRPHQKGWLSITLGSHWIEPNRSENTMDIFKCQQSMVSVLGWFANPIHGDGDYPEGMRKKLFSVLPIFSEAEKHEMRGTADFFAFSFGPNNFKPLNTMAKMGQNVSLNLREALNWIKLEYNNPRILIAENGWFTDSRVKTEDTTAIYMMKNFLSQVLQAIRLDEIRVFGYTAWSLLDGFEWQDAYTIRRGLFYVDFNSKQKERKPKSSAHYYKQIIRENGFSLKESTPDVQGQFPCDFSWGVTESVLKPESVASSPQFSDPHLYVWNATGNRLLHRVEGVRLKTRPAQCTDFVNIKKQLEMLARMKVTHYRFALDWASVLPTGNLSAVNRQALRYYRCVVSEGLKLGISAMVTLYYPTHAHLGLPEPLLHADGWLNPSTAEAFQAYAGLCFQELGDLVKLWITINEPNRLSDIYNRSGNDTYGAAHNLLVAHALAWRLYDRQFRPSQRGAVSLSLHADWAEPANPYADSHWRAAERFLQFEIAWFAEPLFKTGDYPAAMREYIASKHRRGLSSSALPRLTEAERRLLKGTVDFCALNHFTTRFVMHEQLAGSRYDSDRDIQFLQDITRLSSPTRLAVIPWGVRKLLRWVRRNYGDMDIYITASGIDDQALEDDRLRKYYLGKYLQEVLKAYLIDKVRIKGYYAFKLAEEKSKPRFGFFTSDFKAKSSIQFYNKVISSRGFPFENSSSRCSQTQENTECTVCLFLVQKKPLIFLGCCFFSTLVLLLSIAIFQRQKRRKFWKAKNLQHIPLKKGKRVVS

B1: Ab0371 (antibody, IgG4, V domains shown)
VH: QVTLKESGPVLVKPTETLTLTCTVSGFSLNNARVGVSWIRQPPGKALEWLAWIFSNDEKSYSTSLKSRLTISKDTSKSQVVLTMTNMDPVDTATYYCARSVVTGGYYYEGMDVWGQGTTVTVSS
VL: SYVLTQPPSVSVAPGQTARITCGGNNIGSESVHWYQQKPGQAPVLVVDDSDRPSGIPERFSGSNSGNTATLTISRVEAGDEADYYCQVHDGNSEHVVFGGGTKLTVLG
In the case of B1, the concentration giving a half-maximal response (EC50) is above 100 nM.

B2: Ab0378 (antibody, IgG4, V domains shown)
VH: QVTLKESGPVLVKPTETLTLTCTVSGFSLNNARVGVSWIRQPPGKALEWLASIWSNDEKSYSTSLKSRLTISKDTSKSQVVLTMTNMDPVDTATYYCARSVVTGGYYYEGMDVWGQGTTVTVSS
VL: SYVLTQPPSVSVAPGQTARITCGGNNIGSESVHWYQQKPGQAPVLVVDDSDRPSGIPERFSGSNSGNTATLTISRVEAGDEADYYCQVFDGNSVHVVFGGGTKLTVLG
Regarding B2, the EC50 was above 100 nM.

B3: Ab0372 (antibody, IgG4, V domains shown)
VH: QVTLKESGPVLVKPTETLTLTCTVSGFSLNNARVGVSWIRQPPGKALEWLAWIFSNDEKSYSTSLKSRLTISKDTSKSQVVLTMTNMDPVDTATYYCARSVVTGGYYYEGMDVWGQGTTVTVSS
VL: CYVLTQPPSVSVAPGQTARITCGGNNIGSESVHWYQQKPGQAPVLVVDDSDRPSGIPERFSGSNSGNTATLTISRVEAGDEADYYCQVHDGNCEHVVFGGGTKLTVLG
With B3, the EC50 was above 100 nM.

B4: Ab0377 (antibody, IgG4, V domains shown)
VH: QVTLKESGPVLVKPTETLTLTCTVSGFSLNNARVGVSWIRQPPGKALEWLAHIWSNDEKSYSTSLKSRLTISKDTSKSQVVLTMTNMDPVDTATYYCARSVVTGGYYYEGMDVWGQGTTVTVSS
VL: SYVLTQPPSVSVAPGQTARITCGGNNIGSESVHWYQQKPGQAPVLVVDDSDRPSGIPERFSGSNSGNTATLTISRVEAGDEADYYCQVFDGNSVHVVFGGGTKLTVLG
Regarding B4, the 50% effective concentration (EC50) was above 100 nM.

B5: Ab0379 (antibody, IgG4, V domains shown)
VH: QVTLKESGPVLVKPTETLTLTCTVSGFSLNNARVGVSWIRQPPGKALEWLAHIWSNDEKSYSTSLKSRLTISKDTSKSQVVLTMTNMDPVDTATYYCARSVVTGGYYYEGMDVWGQGTTVTVSS
VL: CYVLTQPPSVSVAPGQTARITCGGNNIGSESVHWYQQKPGQAPVLVVDDSDRPSGIPERFSGSNSGNTATLTISRVEAGDEADYYCQVFDGNCVHVVFGGGTKLTVLG
On to B5, for which the half-maximal effective concentration (EC50) is above 100 nM and the Emax was 171%.

B6: Ab0380 (antibody, IgG4, V domains shown)
VH: QVTLKESGPVLVKPTETLTLTCTVSGFSLNNARVGVSWIRQPPGKALEWLASIWSNDEKSYSTSLKSRLTISKDTSKSQVVLTMTNMDPVDTATYYCARSVVTGGYYYEGMDVWGQGTTVTVSS
VL: CYVLTQPPSVSVAPGQTARITCGGNNIGSESVHWYQQKPGQAPVLVVDDSDRPSGIPERFSGSNSGNTATLTISRVEAGDEADYYCQVFDGNCVHVVFGGGTKLTVLG
Take B6: the EC50 was above 100 nM.

B7: Ab0390 (antibody, IgG4, V domains shown)
VH: QVTLKESGPVLVKPTETLTLTCTVSGFSLNNARVGVSWIRQPPGKALEWLAHIWSNDEKSYSTSLKSRLTISKDTSKSQVVLTMTNMDPVDTATYYCARSVVTGGYYYEGMDVWGQGTTVTVSS
VL: SYVLTQPPSVSVAPGQTARITCGGNNIGSESVHWYQQKPGQAPVLVVDDSDRPSGIPERFSGSNSGNTATLTISRVEAGDEADYYCQVFDGNCSCVVFGGGTKLTVLG
Regarding B7, the EC50 was above 100 nM.

B8: Ab0389 (antibody, IgG4, V domains shown)
VH: QVTLKESGPVLVKPTETLTLTCTVSGFSLNNARVGVSWIRQPPGKALEWLASIWSNDEKSYSTSLKSRLTISKDTSKSQVVLTMTNMDPVDTATYYCARSVVTGGYYYEGMDVWGQGTTVTVSS
VL: CYVLTQPPSVSVAPGQTARITCGGNNIGSESVHWYQQKPGQAPVLVVDDSDRPSGIPERFSGSNSGNTATLTISRVEAGDEADYYCQVFDGNCSHVVFGGGTKLTVLG
Turning to B8, the concentration giving a half-maximal response (EC50) is above 100 nM.

B9: Ab0382 (antibody, IgG4, V domains shown)
VH: QVTLKESGPVLVKPTETLTLTCTVSGFSLNNARVGVSWIRQPPGKALEWLASIWSNDEKSYSTSLKSRLTISKDTSKSQVVLTMTNMDPVDTATYYCARSVVTGGYYYEGMDVWGQGTTVTVSS
VL: SYVLTQPPSVSVAPGQTARITCGGNNIGSESVHWYQQKPGQAPVLVVDDSDRPSGIPERFSGSNSGNTATLTISRVEAGDEADYYCQVFDGNCVCVVFGGGTKLTVLG
With B9, the 50% effective concentration (EC50) was above 100 nM.

B10: Ab0375 (antibody, IgG4, V domains shown)
VH: QVTLKESGPVLVKPTETLTLTCTVSGFSLNNARVGVSWIRQPPGKALEWLAHIWSNDEKSYSTSLKSRLTISKDTSKSQVVLTMTNMDPVDTATYYCARSVVTGGYYYEGMDVWGQGTTVTVSS
VL: CYVLTQPPSVSVAPGQTARITCGGNNIGSESVHWYQQKPGQAPVLVVDDSDRPSGIPERFSGSNSGNTATLTISRVEAGDEADYYCQVFDGNCEHVVFGGGTKLTVLG
Consider B10, for which the EC50 was above 100 nM.

B11: Ab0373 (antibody, IgG4, V domains shown)
VH: QVTLKESGPVLVKPTETLTLTCTVSGFSLNNARVGVSWIRQPPGKALEWLAWIFSNDEKSYSTSLKSRLTISKDTSKSQVVLTMTNMDPVDTATYYCARSVVTGGYYYEGMDVWGQGTTVTVSS
VL: SYVLTQPPSVSVAPGQTARITCGGNNIGSESVHWYQQKPGQAPVLVVDDSDRPSGIPERFSGSNSGNTATLTISRVEAGDEADYYCQVHDGNCECVVFGGGTKLTVLG
Turning to B11, the concentration for a half-maximal effect (EC50) is above 100 nM.

B12: Ab0381 (antibody, IgG4, V domains shown)
VH: QVTLKESGPVLVKPTETLTLTCTVSGFSLNNARVGVSWIRQPPGKALEWLAHIWSNDEKSYSTSLKSRLTISKDTSKSQVVLTMTNMDPVDTATYYCARSVVTGGYYYEGMDVWGQGTTVTVSS
VL: SYVLTQPPSVSVAPGQTARITCGGNNIGSESVHWYQQKPGQAPVLVVDDSDRPSGIPERFSGSNSGNTATLTISRVEAGDEADYYCQVFDGNCVCVVFGGGTKLTVLG
Take B12: the 50% effective concentration (EC50) was above 100 nM.

B13: Ab0376 (antibody, IgG4, V domains shown)
VH: QVTLKESGPVLVKPTETLTLTCTVSGFSLNNARVGVSWIRQPPGKALEWLAHIWSNDEKSYSTSLKSRLTISKDTSKSQVVLTMTNMDPVDTATYYCARSVVTGGYYYEGMDVWGQGTTVTVSS
VL: SYVLTQPPSVSVAPGQTARITCGGNNIGSESVHWYQQKPGQAPVLVVDDSDRPSGIPERFSGSNSGNTATLTISRVEAGDEADYYCQVFDGNCECVVFGGGTKLTVLG
Consider B13, for which the EC50 was above 100 nM.

B14: Ab0374 (antibody, IgG4, V domains shown)
VH: QVTLKESGPVLVKPTETLTLTCTVSGFSLNNARVGVSWIRQPPGKALEWLAHIWSNDEKSYSTSLKSRLTISKDTSKSQVVLTMTNMDPVDTATYYCARSVVTGGYYYEGMDVWGQGTTVTVSS
VL: SYVLTQPPSVSVAPGQTARITCGGNNIGSESVHWYQQKPGQAPVLVVDDSDRPSGIPERFSGSNSGNTATLTISRVEAGDEADYYCQVFDGNSEHVVFGGGTKLTVLG
With B14, the EC50 was above 100 nM.

B15: Ab0383 (antibody, IgG4, V domains shown)
VH: QVTLKESGPVLVKPTETLTLTCTVSGFSLNNARVGVSWIRQPPGKALEWLAWIFSNDEKSYSTSLKSRLTISKDTSKSQVVLTMTNMDPVDTATYYCARSVVTGGYYYEGMDVWGQGTTVTVSS
VL: SYVLTQPPSVSVAPGQTARITCGGNNIGSESVHWYQQKPGQAPVLVVDDSDRPSGIPERFSGSNSGNTATLTISRVEAGDEADYYCQVFDGNSVHVVFGGGTKLTVLG
Take B15: the EC50 was above 100 nM.

The EC50 is the concentration needed to bring the measured effect to its halfway point. The Emax is the maximal effect, on the per cent scale that the assay sets.
